In US20160108118A1:

B1: scFv-phage clone 12D (scFv, part only; not given: scFv linker and domain order, part only)
scFv, part: QVQLVQSGGGVVQPGRSLRLSCVASAFTFSRYGMHWVRQAPGKGLEWVALISYDGSSEYYADSVKGRFNISRDNSKNTVYLQMNSLRAEDTAVYYCVKDGLAAKLGHWGQGTLVTVSSQAPSLSVSPGQTANIICSGDNLRTKYVSWYQQKPGQSPLLVIYQDTRRPSGIPARFSGSNSGNTATLTISGTQTERESTYYCMTWDVDTTSMIFGGGTKLTVLG
B2: scFv-phage clone 10D (scFv)
scFv: QVQLVQSGGGVVQPGRSLRLSCAASGFTFSSYGMHWVRQAPGKGLEWVAVISYDGSNKYYADSVKGRFTISRDNSKNTLYLQMNSLRSEDTAVYYCARDKRAAFDIWGQGKMVTVSSGLGGLGGGGSGGGGSGGSSGVGSSYELTQAPSLSVSPGQTANIICSGDNLRTKYVSWYQQKPGQSPLLVIYQDTRRPSGIPARFSGSNSGNTATLTISGTQTERESTYYCMTWDVDTTSMIFGGGTKLTVL
B3: scFv-phage clone 9E (scFv, part only; not given: scFv linker and domain order, part only)
scFv, part: QVQLVESGGGVVQPGRSLRLSCAASGFTFSSYGMHWVRQAPGKGLEWVAVISYDGNNKYYVDSVKGRFTISRDNSKNTLYLQMNSLRSEDTAVYYCARDSGSYLDWYFDLWGRGTLVTVSSQPPSVSVAPGKTARIACGGGNIGDKSVHWYQQKPGQAPVLVIFYDSDRPSGIPKRLSGSNSGNTATLTISRVEAGDEGDYYCQVWDSSSDRPVFGGGTKLTVLG

Legend:
[1] = target: His (control coat of Table 2); assay: phage ELISA
[2] = target: α-myc (anti-myc antibody coated as second antigen); assay: phage ELISA

Binder | OD490 [1] | OD490 [2]
B1 | 0.049 | 0.888
B2 | – | 3.02
B3 | 0.043 | 2.01
